From US20180265573A1

Molecular target: hemagglutinin of influenza A virus A/New Caledonia/20/99 (H1) (influenza A virus A/New Caledonia/20/99 (H1))

B1: monoclonal antibody GG3 (antibody, V domains shown)
VH: QIQLVQSGPELKKPGETVKISCKASGYTFTNYGMNWVKQAPGKGLKWMGWINIYSGESTYVDDFTGRFAFSLETSASTAYLQINNLKNEDMATYFCARSGDTMITAGRSFFAMDYWGQGTSVTVSS
VL: DIQMTQSPSSLSASLGERVSLTCRASQEISGYLSWLQQKPDGTIKRLIYAASTLDSGVPKRFSGSRSGSDYSLSISSLESEDFADYYCLQYANYPWSFGGGTKLEIK
  IC50 (read off the curve), plaque reduction neutralization assay: 6 µg/mL
